Measured values: patent publication US10858422B2, “Methods for treating systemic lupus erythematosus with an anti-apolipoprotein B antibody” (Abcentra, LLC, priority 2016, dated 2020)
Values joined by “and” are separate entries in the source; they are usually repeats but may differ in a detail not shown here. Identical values can stand only once. Marks after values point to notes of the source that are not given here.

Legend:
[1] = in vivo
[2] = test system: B6.lpr.ApoE−/− mice; test: Atherosclerosis: en face Oil Red O of aortic arch, subvalvular plaque area, Oil Red O and CD68; type: in vivo, mouse; settings: for reduction of subvalvular plaque area / development: three injections of the antibody
[3] = biological target: oxidized LDL (Homo sapiens, UniProt P04114); settings: cited from earlier work
[4] = test system: healthy subjects with elevated LDL cholesterol; test: Phase I dose-escalation trial: biomarkers and lipids; type: in vivo, human; settings: healthy volunteers
Source text: (§1) Study population: 80 healthy subjects with elevated LDL cholesterol.
The panel included: oxLDL, Lp-PLA2, hsCRP, sCD36, MCP-1, ICAM-1, IL-10, VCAM-1, IL-1ra, TNFα, insulin, and MMP-3.

[5] = test system: monocyte chemoattractant protein 1, MCP-1; test: In vitro inhibition of oxLDL-mediated cytokine release (MCP-1); type: cell-based
Procedure: The ability of orticumab to shut down macrophage pro-inflammatory activity locally in the plaque became the focus, as it was thought to be an important mechanism underlying its therapeutic activity. Initial hypothesis of using orticumab related to neutralizing oxLDL from the systemic compartment, which required 4 μg/mL=˜28 nM=11 mg of orticumab to neutralize 90% systemic oxLDL. Further in vitro assays provided an insight into the minimum effective concentration of orticumab needed to achieve 50% or 90% inhibition of oxLDL-mediated cytokine release (i.e., inhibition of monocyte chemoattractant protein 1, MCP-1): […]

[6] = Phase IIa: safety, tolerability, anti-therapeutic antibodies; parameters: species or system human; settings: in vivo
Procedure: (§2) Incidence and severity of adverse events and clinical laboratory abnormalities as a measure of safety and tolerability of orticumab. Effects of orticumab on inflammatory and metabolic biomarkers. Serum and EDTA plasma samples for soluble biomarker analysis were obtained at baseline and on Day 29 and Day 85. Biomarker assays were performed using the HumanMAP1.6 multiplex panel from Rules Based Medicine (RBM). IL-6 and TNFα immunoassays were performed at Pacific Biomarkers using Quantikine R&D High Sensitivity ELISA. IL-10, MPO and oxLDL immunoassays were performed at Pacific Biomarkers using immunoassay kits from MSA, Prognostix, and Mercodia, respectively. Presence of anti-therapeutic antibodies to orticumab.

[7] = test system: patients with atherosclerosis and evidence of carotid or aortic plaque inflammation; test: Phase IIa: inflammatory and metabolic biomarkers; type: in vivo, human
Procedure: as §2

[8] = test system: SLE ApoE−/− mice; test: Passive immunization: plaque area and composition in aortic root, flat preps of aorta; type: in vivo, mouse
Procedure: (§3) SLE ApoE^−/− mice were treated with three weekly injections of either orticumab or an irrelevant antibody as control. Six-week old mice were fed with HFD, and were injected at weeks 18, 19 and 20 with orticumab (one dose of 1 mg per week, IP injections), and sacrificed for analysis in week 22. Plaque area and composition were determined in the aortic root.

[9] = test system: SLE ApoE−/− mice; test: Passive immunization: spleen cells and plasma biomarkers; type: in vivo, mouse
Procedure: as §3

[10] = Second Phase I (Ph1): single-dose bioavailability after subcutaneous and intravenous administration; settings: for tmax: Median (min-max)
[11] = Phase I (FIH) dose-escalation trial, single and multiple doses: pharmacokinetics; parameters: species or system human; settings: in vivo
Procedure: as §1
Orticumab was provided as a sterile liquid and contained no preservatives. Each single-use, 10 mL vial was designed to deliver 250 mg of MLDL1278A. The Drug Product was formulated as 25 mg/mL orticumab in 20 mM sodium acetate, 0.15 M sodium chloride, pH 5.5.
Route of Administration: intravenous injection (Subcutaneous injection was also examined).
The exact explanation for these unusual PK characteristics was unknown at that time. The mean terminal half-life was similar after both single and multiple administrations of orticumab and was generally in the range of 2-3 weeks and thus in agreement with other therapeutic monoclonal antibodies.

[12] = male mice, 1 mg i.p. weekly for three weeks, vs control IgG
[13] = oxLDL-mediated cytokine release
[14] = Intravenous (Cohort A, Period 1), single dose 360 mg, Mean (SD)
[15] = Subcutaneous (Cohort A, Period 2), single dose 360 mg, Mean (SD)
[16] = Subcutaneous (Cohort B), single dose 360 mg, Mean (SD)

Sequence of oxidized LDL (P04114 28-4563): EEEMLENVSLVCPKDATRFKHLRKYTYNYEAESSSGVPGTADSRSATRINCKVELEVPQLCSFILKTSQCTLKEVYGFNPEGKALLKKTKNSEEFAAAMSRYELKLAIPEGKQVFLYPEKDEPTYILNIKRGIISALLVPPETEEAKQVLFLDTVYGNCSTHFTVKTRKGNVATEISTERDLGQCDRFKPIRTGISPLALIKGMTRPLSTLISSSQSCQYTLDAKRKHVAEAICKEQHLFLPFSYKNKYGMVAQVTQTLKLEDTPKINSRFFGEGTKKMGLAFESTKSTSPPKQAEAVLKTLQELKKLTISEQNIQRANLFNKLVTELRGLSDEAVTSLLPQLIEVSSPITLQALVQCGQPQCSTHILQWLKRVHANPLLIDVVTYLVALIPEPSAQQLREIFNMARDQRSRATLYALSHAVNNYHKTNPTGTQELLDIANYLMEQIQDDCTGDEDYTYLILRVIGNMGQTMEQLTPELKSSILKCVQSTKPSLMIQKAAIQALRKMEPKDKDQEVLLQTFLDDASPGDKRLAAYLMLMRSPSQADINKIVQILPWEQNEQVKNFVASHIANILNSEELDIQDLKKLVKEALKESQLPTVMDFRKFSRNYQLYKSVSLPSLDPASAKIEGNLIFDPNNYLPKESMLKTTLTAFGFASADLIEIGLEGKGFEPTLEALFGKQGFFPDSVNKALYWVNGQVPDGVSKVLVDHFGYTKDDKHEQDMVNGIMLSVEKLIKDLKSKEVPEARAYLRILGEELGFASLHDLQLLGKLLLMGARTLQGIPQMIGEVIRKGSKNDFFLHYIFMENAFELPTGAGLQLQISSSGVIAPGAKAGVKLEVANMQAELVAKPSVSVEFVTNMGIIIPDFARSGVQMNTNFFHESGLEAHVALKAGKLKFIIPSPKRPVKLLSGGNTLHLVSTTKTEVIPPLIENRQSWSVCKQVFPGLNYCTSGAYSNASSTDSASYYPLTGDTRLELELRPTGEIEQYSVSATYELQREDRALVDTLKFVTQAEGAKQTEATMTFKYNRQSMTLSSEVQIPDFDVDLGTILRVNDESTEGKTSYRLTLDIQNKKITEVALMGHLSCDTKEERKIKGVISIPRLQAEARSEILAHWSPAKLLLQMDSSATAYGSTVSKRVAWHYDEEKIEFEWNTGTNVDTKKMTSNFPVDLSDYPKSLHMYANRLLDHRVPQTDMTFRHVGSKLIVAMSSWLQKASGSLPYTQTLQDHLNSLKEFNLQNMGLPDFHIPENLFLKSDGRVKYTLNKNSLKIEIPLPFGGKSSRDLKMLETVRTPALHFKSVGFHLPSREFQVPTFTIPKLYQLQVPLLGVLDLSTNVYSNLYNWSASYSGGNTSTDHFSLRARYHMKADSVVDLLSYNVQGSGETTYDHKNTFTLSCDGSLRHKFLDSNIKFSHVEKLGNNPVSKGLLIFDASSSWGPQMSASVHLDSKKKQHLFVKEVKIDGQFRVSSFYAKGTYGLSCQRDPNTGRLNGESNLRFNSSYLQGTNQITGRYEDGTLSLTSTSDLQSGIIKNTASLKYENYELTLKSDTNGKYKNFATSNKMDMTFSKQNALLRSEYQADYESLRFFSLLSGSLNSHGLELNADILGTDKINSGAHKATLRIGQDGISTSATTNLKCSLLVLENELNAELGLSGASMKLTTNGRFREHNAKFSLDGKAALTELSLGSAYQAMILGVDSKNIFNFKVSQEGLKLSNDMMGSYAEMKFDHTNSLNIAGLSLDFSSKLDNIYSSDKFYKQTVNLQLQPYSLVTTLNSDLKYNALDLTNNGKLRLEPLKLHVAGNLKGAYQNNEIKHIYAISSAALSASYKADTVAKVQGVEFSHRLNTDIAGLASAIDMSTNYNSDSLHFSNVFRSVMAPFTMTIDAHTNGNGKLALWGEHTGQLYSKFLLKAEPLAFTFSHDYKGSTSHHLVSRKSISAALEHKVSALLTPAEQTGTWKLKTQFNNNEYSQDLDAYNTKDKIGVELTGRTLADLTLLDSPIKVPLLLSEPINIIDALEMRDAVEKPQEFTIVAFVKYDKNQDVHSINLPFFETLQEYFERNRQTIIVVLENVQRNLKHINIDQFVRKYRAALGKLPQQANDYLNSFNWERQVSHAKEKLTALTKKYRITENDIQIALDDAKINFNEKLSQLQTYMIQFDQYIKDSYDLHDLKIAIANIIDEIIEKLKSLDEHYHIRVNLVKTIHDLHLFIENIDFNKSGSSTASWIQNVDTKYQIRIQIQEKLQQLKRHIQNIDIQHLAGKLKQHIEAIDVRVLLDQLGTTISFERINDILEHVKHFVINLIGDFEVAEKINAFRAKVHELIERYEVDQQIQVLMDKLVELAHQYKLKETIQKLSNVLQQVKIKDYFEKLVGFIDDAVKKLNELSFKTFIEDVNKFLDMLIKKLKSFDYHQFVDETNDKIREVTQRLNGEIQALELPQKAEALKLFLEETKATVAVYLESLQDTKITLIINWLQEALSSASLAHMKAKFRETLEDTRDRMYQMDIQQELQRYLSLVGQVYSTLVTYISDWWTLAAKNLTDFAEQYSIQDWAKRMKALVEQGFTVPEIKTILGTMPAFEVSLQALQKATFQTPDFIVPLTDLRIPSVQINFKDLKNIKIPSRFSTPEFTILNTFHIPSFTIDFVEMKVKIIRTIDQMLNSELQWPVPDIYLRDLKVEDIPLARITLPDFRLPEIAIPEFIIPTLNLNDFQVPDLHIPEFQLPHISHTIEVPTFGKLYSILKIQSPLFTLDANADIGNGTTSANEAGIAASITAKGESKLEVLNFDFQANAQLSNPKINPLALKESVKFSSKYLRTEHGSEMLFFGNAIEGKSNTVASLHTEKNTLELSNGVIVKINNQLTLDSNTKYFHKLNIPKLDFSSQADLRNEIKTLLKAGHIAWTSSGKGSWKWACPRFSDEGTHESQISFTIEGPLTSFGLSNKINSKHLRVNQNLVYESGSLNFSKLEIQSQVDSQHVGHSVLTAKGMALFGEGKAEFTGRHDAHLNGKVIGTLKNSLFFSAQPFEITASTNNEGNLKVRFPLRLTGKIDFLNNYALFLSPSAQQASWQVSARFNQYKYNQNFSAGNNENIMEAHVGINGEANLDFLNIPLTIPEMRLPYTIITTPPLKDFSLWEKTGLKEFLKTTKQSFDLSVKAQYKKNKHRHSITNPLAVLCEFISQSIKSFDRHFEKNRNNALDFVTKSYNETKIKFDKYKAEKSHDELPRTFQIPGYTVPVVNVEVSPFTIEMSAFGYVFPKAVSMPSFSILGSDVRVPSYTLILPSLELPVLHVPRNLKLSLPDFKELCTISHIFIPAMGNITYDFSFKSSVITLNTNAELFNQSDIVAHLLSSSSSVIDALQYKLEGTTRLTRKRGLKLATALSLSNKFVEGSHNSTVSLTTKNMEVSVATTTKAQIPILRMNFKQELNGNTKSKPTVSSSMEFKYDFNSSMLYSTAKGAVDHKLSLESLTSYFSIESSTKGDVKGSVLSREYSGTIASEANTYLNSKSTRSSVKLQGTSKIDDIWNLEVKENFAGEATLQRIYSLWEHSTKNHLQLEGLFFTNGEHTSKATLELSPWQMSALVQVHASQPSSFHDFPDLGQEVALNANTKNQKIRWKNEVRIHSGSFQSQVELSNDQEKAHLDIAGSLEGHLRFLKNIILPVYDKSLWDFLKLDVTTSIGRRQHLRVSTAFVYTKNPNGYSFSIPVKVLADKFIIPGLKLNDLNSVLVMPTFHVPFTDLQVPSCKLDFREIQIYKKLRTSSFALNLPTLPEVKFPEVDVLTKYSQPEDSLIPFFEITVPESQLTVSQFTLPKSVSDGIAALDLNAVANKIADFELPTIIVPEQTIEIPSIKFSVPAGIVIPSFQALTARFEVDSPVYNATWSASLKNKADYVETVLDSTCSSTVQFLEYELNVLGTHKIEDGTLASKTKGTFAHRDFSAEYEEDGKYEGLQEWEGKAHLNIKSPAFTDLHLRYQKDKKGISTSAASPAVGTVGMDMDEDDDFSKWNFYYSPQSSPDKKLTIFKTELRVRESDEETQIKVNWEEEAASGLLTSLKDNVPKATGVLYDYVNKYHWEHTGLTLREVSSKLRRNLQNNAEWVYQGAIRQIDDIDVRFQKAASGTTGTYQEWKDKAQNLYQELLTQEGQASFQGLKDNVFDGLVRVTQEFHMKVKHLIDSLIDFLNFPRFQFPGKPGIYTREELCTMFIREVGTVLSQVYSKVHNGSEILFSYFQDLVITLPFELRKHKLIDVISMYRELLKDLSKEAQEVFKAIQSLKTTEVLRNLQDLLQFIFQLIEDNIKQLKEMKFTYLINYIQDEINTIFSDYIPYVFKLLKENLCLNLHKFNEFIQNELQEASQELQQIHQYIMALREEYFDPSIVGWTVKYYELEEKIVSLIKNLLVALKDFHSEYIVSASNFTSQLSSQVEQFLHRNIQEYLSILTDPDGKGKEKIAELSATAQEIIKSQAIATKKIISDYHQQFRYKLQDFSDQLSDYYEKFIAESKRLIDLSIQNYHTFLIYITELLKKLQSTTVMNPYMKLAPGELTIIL

orticumab: recombinant human IgG1 against MDA-modified peptide 45 of ApoB100; heavy chain SEQ ID NO: 316, light chain SEQ ID NO: 317
subjects on active treatment reporting adverse events [1]: 44 of the 64
treatment-emergent adverse events reported on active treatment [1]: 115 (76.2%)
lipid accumulation in subvalvular plaques [2, 12]: trend towards decreased
reduction of CD68-macrophage subvalvular plaque staining [2, 12]: 30.5%
reduction of atherosclerosis in the aortic arch [2, 12]: 42.8%
reduction of subvalvular plaque area / development [2]: 50%
reduction of subvalvular plaque area / development ([2]; listed as MDA-P45 specific antibody): 50.3%
binding specificity, oxidized vs native LDL [3]: binds only to oxidized LDL and not to native LDL
biomarkers (oxLDL, Lp-PLA2, hsCRP, sCD36, MCP-1, ICAM-1, IL-10, VCAM-1, IL-1ra, TNFα, insulin, MMP-3) [4]: No treatment-induced general effects
IC50 for MCP-1 inhibition ([5]; expressed as amount): ~4 mg
IC90 for MCP-1 inhibition ([5]; expressed as amount): 12.4 to 33 mg
IC50 for MCP-1 inhibition [5, 13]: 1.5 µg/mL
IC90 [5, 13]: 30 to 80 nM
IC90 for MCP-1 inhibition [5, 13]: 4.5 to 12 µg/mL
dose-limiting toxicities, deaths, pregnancies [6]: No dose-limiting toxicities, deaths, or pregnancies
immunogenicity [6]: no evidence of immunogenicity
serious adverse events related to procedures or administration [6]: No serious adverse events
tolerability [6]: well tolerated
interleukin 6 level ([7]; 4 weeks, multiple-dose group): nominal increase
tumor necrosis factor alpha level ([7]; 4 weeks, multiple-dose group): nominal increase
lipid parameters or high-sensitivity C-reactive protein level ([7]; either group): No significant decreases
plaque area in aortic root ([8]; 1 mg IP weekly at weeks 18, 19, 20, vs control antibody): significantly smaller plaques
apoptosis in plaque areas (number of TUNEL cells) ([8]; 1 mg IP weekly x3): increased apoptosis
lipid staining, flat preps of the aorta ([8]; 1 mg IP weekly x3): reduction, although not significant
CD68+ area ([8]; 1 mg IP weekly x3, vs control antibody): reduced
spleen monocytes or B cells ([9]; end of experiment): no differences
plasma levels of oxidized LDL and plasma cytokines ([9]; mouse, in vivo): no differences
AUC(0-inf) [10, 14]: 412 (87.3) μg * d/mL
AUC(0-last) [10, 14]: 380 (76.4) μg * d/mL
CL [10, 14]: 0.906 (0.168) L/d
Cmax [10, 14]: 84.3 (16.9) μg/mL
MRT [10, 14]: 16.9 (3.02) d
Vss [10, 14]: 15.2 (3.25) L
Vz [10, 14]: 26.3 (5.34) L
tmax ([10]; Intravenous (Cohort A, Period 1), single dose 360 mg): 0.04 (0.04-0.04) d
Cmax ([10]; Ph1 trial, single dosing, 360 mg IV): 84.3 µg/mL
Cmax ([10]; Ph1 trial, single dosing, 360 mg SC): 9.15 µg/mL
Cmax ([10]; Ph1 trial, single dosing, 360 mg SC 70-90 days after IV dosing): 15.1 µg/mL
AUC(0-last) [10, 15]: 215 (60.0) μg * d/mL
Cmax [10, 15]: 15.1 (4.50) μg/mL
AUC(0-inf) ([10]; Subcutaneous (Cohort A, Period 2), single dose 360 mg, Mean (SD), corrected by subtracting AUCresidual from Period 1): 236 (69.7) μg * d/mL
tmax ([10]; Subcutaneous (Cohort A, Period 2), single dose 360 mg): 3.99 (1.96-6.91) d
AUC(0-inf) [10, 16]: 194 (45.6) μg * d/mL
AUC(0-last) [10, 16]: 178 (39.6) μg * d/mL
Cmax [10, 16]: 9.15 (3.86) μg/mL
tmax ([10]; Subcutaneous (Cohort B), single dose 360 mg): 3.91 (1.00-4.02) d
t½ ([10]; both routes of administration): about 20 days
increase of SC bioavailability by a prior IV dose ([10]; in vivo): approximately 9%
median tmax ([10]; single SC dose): 96 h
Cmax of SC dose versus threshold ([10]; single SC dose 360 mg): falls within range of 4-12 μg/mL
maximum mean serum concentration ([10]; single SC dose 360 mg, Cohort A, Period 2): 15.1 µg/mL
maximum mean serum concentration ([10]; single SC dose 360 mg, Cohort B): 9.15 µg/mL
absolute bioavailability based on AUC(0-inf) ([10]; single SC dose of 360 mg): 47%
bioavailability ([10]; single SC dose of 360 mg after at least 70 days washout from an initial IV dose): 56%
½-life ([10]; single dose 360 mg IV): 33.5 days
½-life ([10]; single dose 360 mg SC): 24.3 days and 24 days
Cmax, max exposure IV vs SC ([10]; single dose at 360 mg (4.34 mg/kg)): 9.2 times
mean terminal half-life ([11]; human): 2-3 weeks
Cmax ([11]; human, iv, 1.25 mg/kg): 20600 ng/mL
Cmax ([11]; human, iv, 5 mg/kg): 105000 ng/mL
Cmax ([11]; human, sc, 1.25 mg/kg): 2990 ng/mL
Cmax, max exposure IV vs SC ([11]; 1.25 mg/kg): 6.9 times
½-life ([11]; 1.25 mg/kg): 20 days
C ≥ 1 μg/mL ([11]; iv, 1.25 mg/kg): Day 28
C ≥ 4 μg/mL ([11]; iv, 1.25 mg/kg): Day 3 (<Day 7)
C ≥ 12 μg/mL ([11]; iv, 1.25 mg/kg): 11 h
C ≥ 1 μg/mL ([11]; iv, 5 mg/kg): Day 56
C ≥ 4 μg/mL ([11]; iv, 5 mg/kg): Day 14
C ≥ 12 μg/mL ([11]; iv, 5 mg/kg): Day 3
C ≥ 1 μg/mL ([11]; iv, 15 mg/kg): Day 70*
C ≥ 4 μg/mL ([11]; iv, 15 mg/kg): Day 42
C ≥ 12 μg/mL ([11]; iv, 15 mg/kg): Day 28
C ≥ 1 μg/mL ([11]; sc, 1.25 mg/kg): Day 28
C ≥ 4 μg/mL ([11]; sc, 1.25 mg/kg): Not achieved
C ≥ 12 μg/mL ([11]; sc, 1.25 mg/kg): Not achieved
Cmax of SC dose versus threshold ([11]; sc, 1.25 mg/kg): does not reach threshold of 4-12 μg/mL
